Patent US11110158B2, “Prostate-associated antigens and vaccine-based immunotherapy regimens” (Pfizer Inc., priority 2012, dated 2021)

Test system: PSA
Experiment: Sandwich ELISA, anti-PSA antibody response in vaccinated mice
Format: in vivo, mouse
Details: Table 15; for # of positive: mice with anti-PSA antibody response / mice tested

Molecule	# of positive	ELISA (OD = 1.0) Average (SD) (anti-PSA antibody titer at OD of 1.0)
PSA secreted: native full length human PSA (amino acids 1-261), SEQ ID NO: 15 (protein, listed as Homo sapiens) MASWVPVVFLTLSVTWIGAAPLILSRIVGGWECEKHSQPWQVLVASRGRAVCGGVLVHPQWVLTAAHCIRNKSVILLGRHSLFHPEDTGQVFQVSHSFPHPLYDMSLLKNRFLRPGDDSSHDLMLLRLSEPAELTDAVKVMDLPTQEPALGTTCYASGWGSIEPEEFLTPKKLQCVDLHVISNDVCAQVHPQKVTKFMLCAGRWTGGKSTCSGDSGGPLVCNGVLQGITSWGSEPCALPERPSLYTKVVHYRKWIKDTIVANP	2/6	
PSA membrane-bound: PSA amino acids 25-261 linked to human PSMA transmembrane domain (aa 15-54), SEQ ID NO: 19 (protein) MASARRPRWLCAGALVLAGGFFLLGFLFGWFIKSSNEATNITPGIVGGWECEKHSQPWQVLVASRGRAVCGGVLVHPQWVLTAAHCIRNKSVILLGRHSLFHPEDTGQVFQVSHSFPHPLYDMSLLKNRFLRPGDDSSHDLMLLRLSEPAELTDAVKVMDLPTQEPALGTTCYASGWGSIEPEEFLTPKKLQCVDLHVISNDVCAQVHPQKVTKFMLCAGRWTGGKSTCSGDSGGPLVCNGVLQGITSWGSEPCALPERPSLYTKVVHYRKWIKDTIVANP	6/6	4838 (835)
